Measured values from article PMC8038991, “R-catcher, a potent molecular tool to unveil the arginylome” (Cellular and Molecular Life Sciences: CMLS, 2021).

Legend:
Assay in all cases: ITC; protein 0.05 mM, 4-mer peptide 1 mM as injectant, B buffer (50 mM Tris-HCl pH 7.5, 200 mM NaCl), 25 °C, Microcal Auto-ITC200; single site-binding model
[1] = target: purified N132D ZZ fragment p62 (122-175) of the ITC table (Fig. 3b) (human) (UniProt Q13501)
[2] = target: purified wild type ZZ fragment p62 (122-175) of the ITC table (Fig. 3b) (human) (UniProt Q13501)
[3] = target: GST-ZZ_(122-175), wild type, bacterially expressed (human) (UniProt Q13501)

Binder	Kd [1]	Kd [2]	Kd [3]
RIFS [RIFS tetrapeptide (Nt-Arg)]	2.85 µM	6.9 µM	4.4 µM
YIFS [YIFS tetrapeptide (Nt-Tyr)]	107 µM	20.7 µM	16.1 µM
